Patent US11643670B2, “Methods of enhancing chromosomal homologous recombination” (Massachusetts Institute of Technology, priority 2018, dated 2023)

Legend:
[1] = tested on: Chd2 locus; assay: Chd2^R1684H knock-in by pronuclear injection of Cas9/crRNA/tracrRNA and ssODN, genotyping of cultured embryos; format: cell-based, mouse
Protocol: tracrRNA, crRNAs, and ssODNs were synthesized by Integrated DNA Technologies (TABLE 1). All injection mixtures were prepared in a final volume of 50 μL according to the following methodology: Using RNase-free water, reagents, and consumables, crRNA (final concentration 0.61 μM), tracrRNA (final concentration 0.61 μM), and ultrapure Tris-HCl, pH 7.39 (final concentration 10 mM, ThermoFisher) were mixed and incubated at 95° C. for 5 minutes. The mixtures were cooled to room temperature for 10 minutes on the benchtop, and then, EnGen Cas9-NLS S. pyogenes (New England Biolabs) was added to a final concentration of 30 ng/μL. The mixtures were incubated at 37° C. for 15 minutes before adding any remaining components: ssODN (final concentration 3 ng/μL or 30 ng/μL), RAD51 (Creative Biomart, final concentration 10 ng/μL). Injection mixtures were stored on ice and briefly heated to 37° C. prior to injection. For experiments utilizing RS-1, embryos were cultured in KSOM-AA (EMD Millipore MR-121-D) with […] RS-1 (Sigma) dissolved in DMSO or DMSO (Sigma, 1:1000) for 24 hours, washed, and cultured in EmbryoMax FHM HEPES Buffered Medium (Sigma) until collection for genotyping.
Female mice (4-5 weeks old, C57BL/6N) were superovulated by IP injection of PMS (5 IU/mouse, three days prior to microinjection) and hCG (5 IU/mouse, 47 hours after PMS injection) and then paired with males. […]

[2] = tested on: R1684H locus; assay: Genotyping of F1 offspring of F0 Chd2^R1684H/R1684H animals made by the IVF strategy; format: in vivo, mouse; details: F0 homozygotes (IVF strategy including RAD51) crossed with wildtype C57Bl/6N
Protocol: Tail snips (˜0.5 cm length) were collected from animals, placed in 75 μL alkaline lysis buffer (25 mM NaOH, 0.2 mM EDTA), and incubated at 95° C. for 30 minutes. Digestion was stopped via addition of 75 μL neutralization buffer (40 mM Tris-HCl pH 5.0). Samples were stored at 4° C. until genotyping.
Chd2^R1684H genotyping was performed via a two-step, nested approach. Except for experiments described in FIGS. 3A-3G, all 8 μL of embryo DNA were used as input for the initial, long round of PCR. Genotyping of mouse pups and adult animals was performed using 2 μL of purified tail DNA. For all embryo genotyping, reactions mixtures were set up in a UV-sterilized laminar flow hood using sterile reagents and filter tips to avoid contamination. All PCR was performed using Biolase DNA Polymerase (Bioline), fresh aliquots of dNTPs (New England Biolabs), and 2% DMSO (final concentration). Primer pair #1 was used for FIGS. 1A-1E, FIGS. 2A-2E, FIGS. 3A-3G, FIG. 5, FIGS. 7A-7C, FIG. 8, and FIG. 9. All other experiments utilized primer pair #2 to further rule out large deletions that could disrupt primer binding sites. 20 cycles of amplification were performed using 30 second extension and annealing times and an annealing temperature of 67° C. Nested PCR was then performed using 2 μL of the initial 25 μL PCR reaction as input. […]

B1: RAD51: recombinant human strand exchange protein RAD51 (Creative Biomart RAD51-134H), transcript variant 4 (protein, UniProt Q06609 2-339, looked up)
DNA repair protein RAD51 …: AMQMQLEANADTSVEEESFGPQPISRLEQCGINANDVKKLEEAGFHTVEAVAYAPKKELINIKGISEAKADKILAEAAKLVPMGFTTATEFHQRRSEIIQITTGSKELDKLLQGGIETGSITEMFGEFRTGKTQICHTLAVTCQLPIDRGGGEGKAMYIDTEGTFRPERLLAVAERYGLSGSDVLDNVAYARAFNTDHQTQLLYQASAMMVESRYALLIVDSATALYRTDYSGRGELSARQMHLARFLRMLLRLADEFGVAVVITNQVVAQVDGAAMFAADPKKPIGGNIIAHASTTRLYLRKGRGETRICKIYDSPCLPEAEAMFAINADGVGDAKD
Q: How did the “homozygous KI rate relative to injection without RAD51” value [1] turn out when B1 was run?
A: Its value is “more than doubled”.

Q: What about the “F1 offspring heterozygous for the R1684H mutation” value [2] of the same molecule?
A: The value was 100%.
